Measurements taken from patent US20240299529A1.

Biological target: human immunoglobulin G (hIgG) (human)
Test: sandwich ELISA, hIgG coated on plate, CD64 titrated, monovalent fit

Substance | Kd [nM]
Flag-CD64 (from UniProt P12314 16-374) (receptor) | 0.0536
recombinant wild-type CD64 (from UniProt P12314 16-374) (receptor) | 0.0456
